In the nanobody polyreactivity screen of Harvey et al. (2022):

Assay: yeast display, Sf9 membrane polyspecificity reagent, FACS + sequencing; frameworks hold sequencing errors
Procedure, shortened: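 A nanobody's polyreactivity label depends on the gate it was sorted from. Yeast display cells were stained with 10% biotinylated, detergent-solubilized Sf9 membrane reagent for 1 hour at 4 °C, enriched on streptavidin microbeads and sorted by FACS. The low and high (top ~1%) gates were set on anti-HA fluorescence for expression and streptavidin fluorescence for reagent binding.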

Sequence	polyreactivity (PSR sort gate)
QVQLVESGGGLVQAGGSLRLSCAASGSTFGFYAMGWYRQAPGKERELVAAISWNDGSTYYADSVKGRFTISRDNAKNTVYLQMNSLKPEDTAVYYCATEYSLWYTRDWQRYEYWGQGTQVTVSS	high polyreactivity
QVQLVESGGGLVQAGGSLRLSCAASGSTFGGNAMGWYRQAPGKERELVAAISSSGGSTYYADSVKGRFTISRDNAKNTVYLLMNSLKPEDTAVYYCNADDGYGQVHSISTYEMDYWGQGTQVTVSS	low polyreactivity
QVQLVESGGGLVQAGGSLRLSCAASGSTFGGNAMGWYRQAPGKERELVAAISSSGGSTYYADSVKGRFTISRDNAKYTVYLQMNSLKPEDSAVYYCAALYHWTYDYWGLGTQVTVSS	low polyreactivity
QVQLVESGGGLVQAGGSLRLSCAASGSTFGGNAMGWYRQAPGKERELVAVISKRGGSTYYADSVKGRFTISRDNAKNTVYLQMNSLKPEDTAVYYCAAGYFIRTRSRYRYDYWGQGTQVTVSS	high polyreactivity
QVQLVESGGGLVQAGGSLRLSCAASGSTFGGYAKGWYRQAPGKERELVAAMSQSGTRTYYADSVKGRFTISRDKAKNTVYLQMNSLKPEDTAVYYCAAEKRFRKYDNWGQGTQVTVSS	high polyreactivity
QVQLVESGGGLVQAGGSLRLSCAASGSTFGGYAMGWYRQAPGKERELVAAISSGGSTYYADSVKGRFTISRDNAKNTVYLQMNSLKPEDTAVYYCAAEGIYFILWYGYVEYDYWGQGTQVTVSS	low polyreactivity
QVQLVESGGGLVQAGGSLRLSCAASGSTFGGYTMGWYRQAPGKERELVAAITSRGGTTYYADSVKGRFTISRDNAKNTVYLQMNSLKPEDTAVYYCNRVSRYFYGFYWGQGTQVTVSS	high polyreactivity
QVQLVESGGGLVQAGGSLRLSCAASGSTFGHYARGWYRQATGKERELVAAISFTGARTYYADSVKGRFTISRDNAKNTVYLQMNSLKPEDTAVYYCIARGDYRISDYWGQGTQVTVSS	high polyreactivity
QVQLVESGGGLVQAGGSLRLSCAASGSTFGINAMGWYRQAPGKERELVASITRRGGSTYYADSVKGRFTISRDNAKNTVYLRMNSLKPEDTAVYYCNKTYRYGTPLYDYWGQGTQVTVSS	high polyreactivity
QVQLVESGGGLVQAGGSLRLSCAASGSTFGINAMGWYRQAPGKERELVAVIRAGGGRTYYADSVKGRFTISRDNAKNTVYLQMNSLKPEDTAVYYCAARYYSRYVSVYASSKTGYDYWGQGTQVTVSS	high polyreactivity
QVQLVESGGGLVQAGGSLRLSCAASGSTFGIYSMGWYRQAPGKERELVAAISVRGGRTYYADSVKGRFTISRDNAKNTVYLQMNSLKPEDTAVYYCAPTWYWGNDYWGQGTQVTVSS	low polyreactivity
QVQLVESGGGLVQAGGSLRLSCAASGSTFGKYVMGWYRQAPGKERELVAAISRSGGSTYYADSVKGRFTISRDNAKNTVYFQMNSLKPEDTAVYYCATVGYGYDYWGQGTQVTVSS	high polyreactivity
QVQLVESGGGLVQAGGSLRLSCAASGSTFGLYAMGWYRQAPGKEREFVAAISWRTGSTYYADSVKGRFTISRDNAKNTVFLQMYSLKPEDTAVYYCAARAYGTIIHGYWGQGTHVTVSS	high polyreactivity
QVQLVESGGGLVQAGGSLRLSCAASGSTFGLYAMGWYRQAPGKERELVAAISSGGSTYYADSVKGRFTISRDNAKNTVYLQMNSLKPEDTAVYYCATGYWAYTIEYYYWGQGTQVTVSS	low polyreactivity
QVQLVESGGGLVQAGGSLRLSCAASGSTFGLYAMGWYRQAPGKERELVAAITGRASSTYYADSVKGRFTISRDNAKNTVYLQMNSLKPEDTAVYDCAASGFGQISNPRRDYWGQGTQVTVSS	high polyreactivity
QVQLVESGGGLVQAGGSLRLSCAASGSTFGLYARGWYRQAPGKERELVAAISGGRTYYADSVKGRFTISRDNAKNTVYLQMNSLKPEDTAVYYCAADYNYYWGQGTQVTVSS	high polyreactivity
QVQLVESGGGLVQAGGSLRLSCAASGSTFGLYGMGWYRQAPGKERELVAAITYSGGGTYYADSVKGRFTISRDNAKNTVYLQMNSLKPEDTAVYYCAAEYYSSITGWYYYWGQGTQVTVSS	low polyreactivity
QVQLVESGGGLVQAGGSLRLSCAASGSTFGNNAMGWYRQAAGKERELVAGINSGGSTTYADSVKGRFTISRDNAKNTVYLQMNSLKPEDTAVYYCAAVYYYYSWYSKHYYWGQGTQVTVSS	low polyreactivity
QVQLVESGGGLVQAGGSLRLSCAASGSTFGNNAMGWYRQAPGKERELVATIDDTTVSTNYADSVKGRFTISRDNAKNTVYLQMNSLKPEDTAVYYCAADDVDGSPYDYWGQGTQVTVSS	low polyreactivity
QVQLVESGGGLVQAGGSLRLSCAASGSTFGNNAMGWYRQAPGKERELVATIDDTTVSTNYADSVKWRFTISRDNAKNTVYLQMNSLKPEDTAVYYCAAPVGNYGSFDYWGQGTQVTVSS	low polyreactivity
QVQLVESGGGLVQAGGSLRLSCAASGSTFGPNGMGWYRQAPGKERELVARIDRIGGGTYYADSVKGRFTISRDNAKNTVYLQMNSLKPEDTAVYSCAADGPSPFIQGYAKGDYWGQGTQVTVSS	low polyreactivity
QVQLVESGGGLVQAGGSLRLSCAASGSTFGPNTMGWYRQAPGKERELVAAISRAGRTYYADSVKGRFTISRDNAKNTVYLQMNSLKPEDTAVYYCNAGRSYHWRAGGEYDYWGQGTQVTVSS	low polyreactivity

Sequence	polyreactivity (PSR sort gate)
QVQLVESGGGLVQAGGSLRLSCAASGSTFGPYAMAWYRQAPGKERELVAAIDKSGGSTYYADSVKGRFTLSRDNAKNTVYLQMNSLKPEDTAVYYCAADLVRYFGYYDYDSWGQGTQVTVSS	low polyreactivity
QVQLVESGGGLVQAGGSLRLSCAASGSTFGPYAMGWYRPAPGKERELVAAITSSGGTTYYADSVKGRFTISRDNAKNTVYLQMNSLKPEDTAVYYCAVDYYGKVGDDYWGQGTQVTVSS	low polyreactivity
QVQLVESGGGLVQAGGSLRLSCAASGSTFGPYAMGWYRQAPGKERELVAAISRRGTSTYYADSVKGRFTISRDNAKNTVYLQMISLKPEDTAVYYCAADRLLYGGGREYWGQGTQVTVSS	high polyreactivity
QVQLVESGGGLVQAGGSLRLSCAASGSTFGPYAMGWYRQAPGKERELVAAITWNGGSTYYADSVKGRFTISRDNAKNSVYLQMNSLKPEDTAVSFCNAVGSYGDFGYWGQGTQVTVSS	high polyreactivity
QVQLVESGGGLVQAGGSLRLSCAASGSTFGPYAMGWYRQAPGKERELVADITVSDGSTYYADSVKGRFTISRDNAKNTVYLQMNSLKPEHTAVYYCAAEIYYSFGYWGQGTQVTVSS	low polyreactivity
QVQLVESGGGLVQAGGSLRLSCAASGSTFGPYVMRWYRQAPGKERELVAGISSSGGSTYYADSVKGRFTISRDNAKNTVYLQMNSLKPEDTAVYYCAAVWTTGWIDSYTAWYSYEYWGQGTQVTVSS	low polyreactivity
QVQLVESGGGLVQAGGSLRLSCAASGSTFGRNTMGWYRQAPGKERELVAAISKSGGSTRYADSVKGRFTISRDNAKNTVYLQMNSVKPEDTAVYYCAARVYSLGYGGDYWGQGTQVTVSS	high polyreactivity
QVQLVESGGGLVQAGGSLRLSCAASGSTFGRSVMGWYRQAPGNVRELVGAISRRGGSTYYADSVKGRFTISRDNAKKTVYIQLHSRKPEDPAVYYSPVDGARSGEPYDSMDYWGQGTHVTVSS	high polyreactivity
QVQLVESGGGLVQAGGSLRLSCAASGSTFGRYAMGWYRQAPGKERELVAAINFNGGRTYYADSVKGRFTISRDNAKNTVYLQMNSLKPEDTAVYYCNALQQYALSRYYWGQGTQVTVSS	high polyreactivity
QVQLVESGGGLVQAGGSLRLSCAASGSTFGRYAMGWYRQAPGKERELVAAITRGGSTNYADSVKGRFTISRDNAKNTVYLPMNSLKPEDTAVYYCAADKPGIFSRFDYWGQGTQVTVSS	low polyreactivity
QVQLVESGGGLVQAGGSLRLSCAASGSTFGRYAMGWYRQAPGKEREMVAGITYGSTYYADSVKGRFTISRDNAKNTVYLQMNSLKPEDTAVYYCAADLSYTCVHGYRSDTLMDYWGQGTQVTVSS	low polyreactivity
QVQLVESGGGLVQAGGSLRLSCAASGSTFGSNAMGWYRQAPGKERELVAAITGGDVSTYYADSVKGRFTISRDNAKNTDYLQMNSLKPEDTAVYYCNAEYARPAMDYWGQGTQVTVSS	low polyreactivity
QVQLVESGGGLVQAGGSLRLSCAASGSTFGSYAMGLYRQAPGKERELVAAITQIGGSTYYADSVKGRFTISRDNAKNTVYLQMNSLKPEDTAVYYCAVTAGRGGYPQGGVTRGYWGQGTQVTVSS	high polyreactivity
QVQLVESGGGLVQAGGSLRLSCAASGSTFGSYAMGWYRQAPGKEREFVATINTSNDRTYYADSVKGRFTISRDKAKNTVYLQMNSLKPEDTAVYYSNVLVYNVHTRGYWGQGTQVTVSS	high polyreactivity
QVQLVESGGGLVQAGGSLRLSCAASGSTFGSYAMGWYRQAPGKERELVAAIRRGGSTTYADSVKGRFTISRDNAKNTVYLQMYSLKPEDTAVYYCAAPELNEGLPLDYWGQGTQVTVSS	low polyreactivity
QVQLVESGGGLVQAGGSLRLSCAASGSTFGSYAMGWYRQAPGKERELVAAITQIGGSTYYADSVKGRFTISRDKAKNTVYLQMNSLKPEDTAVYYCAARYRYPGYYYWGQGTQVTVSS	high polyreactivity
QVQLVESGGGLVQAGGSLRLSCAASGSTFGSYGMGWYRQAPGKEREVVAVITYSGDRTYYADSVKGRFTISRDNAKNTVYLQMNSLKPEDTAVYYCAADRSYRVSEYDYWGQGTQVTVSS	low polyreactivity
QVQLVESGGGLVQAGGSLRLSCAASGSTFGTYAMGWYRQAPGKERELVAAISRRGGSTYYADSVKGRFTISRDNAKNTVYLQMNSLKPEDTAVDYCAARNFHPDDNYWGQGTQVTVSS	high polyreactivity
QVQLVESGGGLVQAGGSLRLSCAASGSTFGVNAMGWYRQAPGKERELVAAISSSGSSTYADSVKGRFTISRDNAKNTVYLQMNSLKPEDTAVYYCAAQSPAYYTKSYWGQGTQVTVSS	low polyreactivity
QVQLVESGGGLVQAGGSLRLSCAASGSTFGVNAMGWYRQAPGKERELVAAISSSGSSTYADSVKGRFTISRDNAKNTVYLQMNSLKPEDTAVYYCNKTTLLTVEYDYWGQGTQVTVSS	low polyreactivity
QVQLVESGGGLVQAGGSLRLSCAASGSTFGVNAMGWYRQAPGKERELVAAITRRGSSTYYADSVKGRFTNSRDNAKNTVYLQMNSLKPEDTAVYFCAADLHYRPGFRYGYWGQGTQVTVSS	high polyreactivity
